For two molecules, Kd results are on record in PMC10868436, “Discovery of broadly‐neutralizing antibodies against brown recluse spider and Gadim scorpion sphingomyelinases using consensus toxins as antigens” (Protein Science : A Publication of the Protein Society, 2024).

Assay [1] concerns the target T1, recombinant SMase from L. rufescens (Loxosceles rufescens, UniProt C0JB02).
T1 construct: also called rLr; recombinant sphingomyelinase from Loxosceles rufescens; source: E. coli BL21(DE3), purified (HisPur Ni-NTA)
The assay is described as follows: BLI; ForteBio Octet RED96, […]; 1:1 binding model, […]; triplicate. To be noted: both partners purified.

The target in assay [2] is T2, recombinant SMase from H. lepturus (Hemiscorpius lepturus, UniProt A0A1L4BJ98).
T2 construct: also called rHl; recombinant sphingomyelinase from Hemiscorpius lepturus; source: E. coli BL21(DE3), purified (HisPur Ni-NTA)
T2 sequence (A0A1L4BJ98 whole entry, looked up): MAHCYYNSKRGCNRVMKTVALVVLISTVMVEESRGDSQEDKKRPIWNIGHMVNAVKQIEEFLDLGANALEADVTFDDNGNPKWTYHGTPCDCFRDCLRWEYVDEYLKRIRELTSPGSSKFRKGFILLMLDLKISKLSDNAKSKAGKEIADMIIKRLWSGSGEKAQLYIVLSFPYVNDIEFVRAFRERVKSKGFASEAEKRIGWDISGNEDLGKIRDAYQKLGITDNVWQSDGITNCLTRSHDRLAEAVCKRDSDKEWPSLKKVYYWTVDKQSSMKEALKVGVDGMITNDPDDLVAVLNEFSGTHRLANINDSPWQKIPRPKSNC
The description is as above. The note with it: both partners purified.

T1 sequence (C0JB02 whole entry, looked up): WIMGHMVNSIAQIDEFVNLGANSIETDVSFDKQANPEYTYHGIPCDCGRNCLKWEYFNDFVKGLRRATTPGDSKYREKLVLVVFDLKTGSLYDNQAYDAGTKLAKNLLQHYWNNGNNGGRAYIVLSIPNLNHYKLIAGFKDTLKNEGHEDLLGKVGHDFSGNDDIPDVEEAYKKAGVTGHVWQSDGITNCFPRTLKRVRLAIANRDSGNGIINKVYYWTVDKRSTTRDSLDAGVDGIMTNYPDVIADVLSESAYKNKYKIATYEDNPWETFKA

B1: TPL0674_03_F05 (scFv, V domains shown)
VH: EVQLVQSGAEVKKPGASVRVSCKASGYSITNYGISWVRQAPGQGLEWMGWINTYNGNTNYAQKFQGRVTMTRDTSISTAYMELSRLRSDDTAVYYCARDHPYRGMDVWGQGTLVTVSS
VL: SYELTQDPAVSVALGQTVRITCQGDSLRSYYASWYQQKPGQAPVLVIYGKNNRPSGIPDRFSGSSSGNTASLTITGAQAEDEADYYCNSRDSSGNHPHVVFGGGTKLTVL
notes: also called scFv TPL0674_03_F05
In general, Kd refers to the free concentration of one partner at which half of the binding sites on the other are occupied at equilibrium, for simple one-to-one binding. As for B1, the Kd in assay [1] was 80.4 nM; in assay [2], 51.6 nM.

B2: TPL0674_03_A04 (scFv, V domains shown)
VH: QVQLVQSGSELKKPGASVKVSCKASGYTFTSYAMNWVRQAPGQGLEWMGWINTNTGNPTYAQGFTGRFVFSLDTSVSTAYLQISSLKAEDTAVYYCARDQGGDRHFGYWGQGTTVTVSS
VL: QSELTQPPSASGTPGQRVTISCSGSSSNIGSHRVNWYQQLPGTAPKLLIYSNYHRPAGVPDRFSASKSGTSASLAISGLQSEDEADYYCAAWDDSLNGYVFGTGTQLTVL
notes: also called scFv TPL0674_03_A04
As to B2, the Kd in assay [1] is 66.9 nM; in assay [2], 45.3 nM.
